Experimental data: US6537804B1, “BCR-ABL directed compositions and uses for inhibiting Philadelphia chromesome stimulated cell growth” (Board of Regents, The University of Texas Systems, priority 1995, dated 2003)
Non-standard residues stand in square brackets, D forms with d. No end group written: not given here. pY = N[C@@H](Cc1ccc(OP(=O)(O)O)cc1)C(=O)O

Key:
[1] = molecular target: T1, amino terminal SH2 domain of Ras Gap (Homo sapiens, UniProt P20936); test: Binding of phosphotyrosine tryptic peptides of Bcr-Abl to GST-Gap SH2; details: phosphotyrosine tryptic peptides of p210 Bcr-Abl; no binding to GST
T1 construct: the amino terminal SH2 domain of Ras Gap was expressed as a fusion protein containing the glutathione S transferase protein (GST); made in house
T1 sequence (P20936 181-272 limits assumed): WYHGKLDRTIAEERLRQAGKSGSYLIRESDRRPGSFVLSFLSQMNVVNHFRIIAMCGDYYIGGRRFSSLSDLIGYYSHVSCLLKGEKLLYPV
Source text: The inventors have conducted studies in which the amino terminal SH2 domain of Ras Gap was expressed as a fusion protein containing the glutathione S transferase protein (GST). These studies involve mixing GST-Gap SH2 with phosphotyrosine tryptic peptides of Bcr-Abl.

c-Abl SH2 = molecular target: T2, c-Abl SH2 (Mus musculus, UniProt P00520); test: Binding of phosphotyrosine tryptic peptides of Bcr-Abl to GST-Abl SH2; details: phosphotyrosine tryptic peptides of p210 Bcr-Abl; no binding to GST
T2 construct: The inventors performed similar studies with the SH2 domain of Abl; made in house
T2 sequence (P00520 127-217 limits assumed): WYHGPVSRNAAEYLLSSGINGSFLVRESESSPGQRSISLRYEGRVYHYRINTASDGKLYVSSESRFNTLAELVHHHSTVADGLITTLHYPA
Source text: FIG. 10A and FIG. 10B show an absorbed tryptic map of p210. GST-Abl SH2 binds phosphotyrosine tryptic peptide 3, which contains tyrosine 283. p210 Bcr-Abl labeled in the in vitro kinase assay from K562 cells was purified on SDS gels, digested with trypsin and the digest was split in two parts. One was absorbed with GST (FIG. 10A) and the other with GST-Abl SH2 (FIG. 10B). […] The dashed circles identify peptides lacking in the GST-Abl SH2 absorbed fractions.
The inventors performed similar studies with the SH2 domain of Abl. These were performed with a mouse c-Abl SH2 sequence, which differs by only two amino acids from the human sequence within the SH2 domain.

SH2 domain of Grb2 = SH2 domain of Grb2 (Homo sapiens, UniProt P62993); test: Binding of Bcr peptide to Grb2; details: tyrosine 177 phosphorylated peptide
P210 BCR-ABL = molecular target: T3, P210 BCR-ABL (Homo sapiens, UniProt P00519+P11274); test: In vivo tyrosine phosphorylation of truncated Bcr proteins in COS-1 cells, anti-pTyr Western blot; assay type: cell-based; details: COS-1 cells coexpressing p210 Bcr-Abl
T3 construct: expressed in transfected cells; host or cells: COS-1
Source text: FIG. 6A and FIG. 6B. In vivo tyrosine phosphorylation of truncated Bcr first exon sequences by Bcr-Abl. COS-1 vectors expressing Bcr150, Bcr221, and Bcr413 proteins, respectively, were expressed in COS-1 cells in the presence and absence of […].
The next tyrosine is at residue 177, and it is expected to be phosphorylated by Bcr-Abl (Puil et al., 1994). Bcr221 is tyrosine phosphorylated, but as with Bcr413, only in the presence of Bcr-Abl.
Transient transfections of COS1 cells were performed by the diethylaminoethyl (DEAE)-Dextran procedure. Transfection was initiated when COS1 cells were about 60%-80% confluent. After washing once with phosphate-buffered saline (PBS) and once with Tris-buffered Saline-0.02% Dextrose (TBS-D), cells were incubated with TBS-D containing 0.2 mg/ml DEAE-Dextran and 2 μg/ml of each added plasmid. The supernatant was then removed after 5-10 minutes when the cells started to round up and shrink.
After washing once with TBS-D and once with PBS, the cells were incubated in DMEM supplemented with 10% fetal calf serum and 100 μg/ml of chloroquine at 37° C. The chloroquine containing media was removed after 3-5 hours and the cells were washed three times with DMEM without fetal calf serum. The cells were then incubated in DMEM supplemented with 10% fetal calf serum at 37° C. for 2-3 days before harvesting.
COS-1 vectors expressing Bcr159, Bcr221, and Bcr413 proteins, respectively, were expressed in COS-1 cells in the presence and absence of p210 Bcr-Abl.

simian Grb2 protein = test: Co-immunoprecipitation of Grb2 with p160 BCR from COS1 cells, anti-Grb2 Western blotting; assay type: binding; details: COS1 cells coexpressing p145 c-ABL(1b)
Procedure: Anti-Grb2 Western blotting was performed on anti-BCR (1256-1271) antibody immunoprecipitates of lysates from COS1 cells cotransfected p145 c-ABL with either wild type p160 BCR (lanes 1 and 2) or p160 BCR (F177) (lanes 3 and 4) mutant. Lanes 2 and 4 are immunoprecipitation with pre-blocked anti-BCR (1256-1271) antibody. COS1 cells express an endogenous simian Grb2 protein detected by Western blotting (FIG. 18, lane 1). P160 BCR and p145 c-ABL(1b) were separately or simultaneously expressed in COS1 cells. Two days after transfection, cells were harvested. The cell lysates were clarified by ultracentrifugation and the supernatants were incubated with either anti-BCR c-terminal (1256-1271) antibody (FIG. 18, lanes 2, 4 and 6) or peptide preblocked antibody (FIG. 18, lanes 3, 5 and 7). The immunoprecipitated proteins were then fractionated by a 10% polyacrylamide SDS PAGE and then transferred to a p-immoblin membrane. The membrane was then blotted by an anti-Grb2 antibody (FIG. 18). In this study, p145 c-ABL was coexpressed with either wild type p160 BCR or the mutant p160 BCR(F177) in COS1 cells. Cell lysates were subjected to immunoprecipitation by anti-BCR C-terminal (1256-1271) antibody and the immunoprecipitates were analyzed by Western blotting with an anti-Grb2 antibody.

SH2 domain of Grb2, sequence (P62993 whole entry, the tested form may be a part): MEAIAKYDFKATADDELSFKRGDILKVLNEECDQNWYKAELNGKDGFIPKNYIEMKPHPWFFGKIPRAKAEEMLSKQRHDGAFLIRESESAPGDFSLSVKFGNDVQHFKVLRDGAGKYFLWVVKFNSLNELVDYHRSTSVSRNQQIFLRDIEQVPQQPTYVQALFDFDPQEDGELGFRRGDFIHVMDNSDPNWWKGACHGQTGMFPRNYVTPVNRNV
T3 sequence (P11274+P00519 fused): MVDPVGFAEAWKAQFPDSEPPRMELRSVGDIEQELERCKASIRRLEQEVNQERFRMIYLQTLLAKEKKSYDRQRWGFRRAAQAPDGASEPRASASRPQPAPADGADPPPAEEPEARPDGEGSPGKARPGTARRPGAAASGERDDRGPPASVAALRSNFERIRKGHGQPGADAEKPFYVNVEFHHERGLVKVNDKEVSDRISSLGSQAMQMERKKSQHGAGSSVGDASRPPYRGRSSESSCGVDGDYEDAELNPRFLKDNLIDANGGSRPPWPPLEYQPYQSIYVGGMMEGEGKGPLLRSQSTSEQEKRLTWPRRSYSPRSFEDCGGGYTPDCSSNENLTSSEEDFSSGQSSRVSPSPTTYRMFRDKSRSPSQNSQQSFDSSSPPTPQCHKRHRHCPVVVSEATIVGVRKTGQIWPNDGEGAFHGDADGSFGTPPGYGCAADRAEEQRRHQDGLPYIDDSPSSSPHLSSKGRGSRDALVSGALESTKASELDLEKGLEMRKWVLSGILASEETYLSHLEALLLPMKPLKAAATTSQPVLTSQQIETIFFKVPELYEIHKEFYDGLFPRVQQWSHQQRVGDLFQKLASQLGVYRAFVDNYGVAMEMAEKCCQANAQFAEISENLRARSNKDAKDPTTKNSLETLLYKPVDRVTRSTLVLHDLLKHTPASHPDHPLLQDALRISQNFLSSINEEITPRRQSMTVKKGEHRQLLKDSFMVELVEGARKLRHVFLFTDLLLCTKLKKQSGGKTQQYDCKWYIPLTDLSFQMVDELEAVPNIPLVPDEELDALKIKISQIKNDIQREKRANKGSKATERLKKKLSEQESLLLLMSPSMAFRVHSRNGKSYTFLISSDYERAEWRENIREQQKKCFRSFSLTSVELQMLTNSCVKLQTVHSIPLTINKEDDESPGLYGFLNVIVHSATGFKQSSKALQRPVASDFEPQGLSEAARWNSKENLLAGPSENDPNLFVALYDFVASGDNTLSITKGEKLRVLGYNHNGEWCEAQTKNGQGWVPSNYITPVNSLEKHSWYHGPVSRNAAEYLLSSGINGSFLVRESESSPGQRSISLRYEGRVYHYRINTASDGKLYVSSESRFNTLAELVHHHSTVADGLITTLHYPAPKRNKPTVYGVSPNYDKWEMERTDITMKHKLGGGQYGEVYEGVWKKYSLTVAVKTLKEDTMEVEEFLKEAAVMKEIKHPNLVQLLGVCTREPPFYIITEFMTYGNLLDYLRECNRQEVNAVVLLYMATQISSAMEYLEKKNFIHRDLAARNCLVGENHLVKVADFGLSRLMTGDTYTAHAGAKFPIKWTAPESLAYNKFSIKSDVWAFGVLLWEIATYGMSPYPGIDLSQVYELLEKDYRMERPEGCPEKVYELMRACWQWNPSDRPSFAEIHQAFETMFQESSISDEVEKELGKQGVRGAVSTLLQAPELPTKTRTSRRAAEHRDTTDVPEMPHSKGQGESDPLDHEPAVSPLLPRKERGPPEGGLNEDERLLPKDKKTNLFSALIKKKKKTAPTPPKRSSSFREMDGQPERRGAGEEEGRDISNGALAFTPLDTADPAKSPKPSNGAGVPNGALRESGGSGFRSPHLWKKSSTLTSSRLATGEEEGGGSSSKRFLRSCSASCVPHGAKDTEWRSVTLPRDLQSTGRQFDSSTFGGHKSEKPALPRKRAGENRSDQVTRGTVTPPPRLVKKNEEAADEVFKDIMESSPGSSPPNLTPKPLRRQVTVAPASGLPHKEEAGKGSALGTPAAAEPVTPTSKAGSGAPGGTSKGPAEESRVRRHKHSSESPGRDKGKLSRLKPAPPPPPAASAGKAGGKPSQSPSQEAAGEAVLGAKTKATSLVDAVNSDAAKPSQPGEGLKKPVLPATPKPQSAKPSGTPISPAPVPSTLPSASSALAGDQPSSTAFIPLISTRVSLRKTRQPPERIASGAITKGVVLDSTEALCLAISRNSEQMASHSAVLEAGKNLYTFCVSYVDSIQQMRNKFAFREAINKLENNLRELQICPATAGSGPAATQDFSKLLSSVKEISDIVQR

Molecule: FLKDNLIDANGGSRPPWPPLEYQPYQSIYVGGMMEGEGK (also: phosphotyrosine, position not given here) [#3, phosphotyrosine tryptic peptide 3 of p210 Bcr-Abl]
- Binding to GST-Ras Gap SH2 fusion protein [1]: specifically bound
- Binding to GST-Abl SH2 (c-Abl SH2): bind

Molecule: GHGQPGADAEKPFpY^177VNVE (GHGQPGADAEKPF[pY]VNVE) [Bcr Peptide 164-181]
- Binding to the SH2 binding site on Grb2 (SH2 domain of Grb2): binds
- Binding to the SH2 binding site on Grb2 (SH2 domain of Grb2; listed as SEQ ID NO:8): strongly binds

Molecule: NSLETLLYK (NSLETLL[pY]K) [#8, phosphotyrosine tryptic peptide 8 of p210 Bcr-Abl, outside of the first exon]
- Binding to GST-Ras Gap SH2 fusion protein [1]: specifically bound
- Binding to GST-Abl SH2 (c-Abl SH2): bind

B1: Bcr159: amino acids 1-159 of Bcr, N-terminal fragment (protein)
chain: MVDPVGFAEAWKAQFPDSEPPRMELRSVGDIEQELERCKASIRRLEQEVNQERFRMIYLQTLLAKEKKSYDRQRWGFRRAAQAPDGASEPRASASRPQPAPADGADPPPAEEPEARPDGEGSPGKARPGTARRPGAAASGERDDRGPPASVAALRSNFE
- Tyrosine phosphorylation by Bcr-Abl in cells (P210 BCR-ABL): not

B2: wild type p160 PCR: wild type full length human p160 BCR tyrosine phosphorylated by p145 c-ABL(1b) (protein)
chain: MVDPVGFAEAWKAQFPDSEPPRMELRSVGDIEQELERCKASIRRLEQEVNQERFRMIYLQTLLAKEKKSYDRQRWGFRRAAQAPDGASEPRASASRPQPAPADGADPPPAEEPEARPDGEGSPGKARPGTARRPGAAASGERDDRGPPASVAALRSNFERIRKGHGQPGADAEKPFYVNVEFHHERGLVKVNDKEVSDRISSLGSQAMQMERKKSQHGAGSSVGDASRPPYRGRSSESSCGVDGDYEDAELNPRFLKDNLIDANGGSRPPWPPLEYQPYQSIYVGGMMEGEGKGPLLRSQSTSEQEKRLTWPRRSYSPRSFEDCGGGYTPDCSSNENLTSSEEDFSSGQSSRVSPSPTTYRMFRDKSRSPSQNSQQSFDSSSPPTPQCHKRHRHCPVVVSEATIVGVRKTGQIWPNDGEGAFHGDADGSFGTPPGYGCAADRAEEQRRHQDGLPYIDDSPSSSPHLSSKGRGSRDALVSGALESTKASELDLEKGLEMRKWVLSGILASEETYLSHLEALLLPMKPLKAAATTSQPVLTSQQIETIFFKVPELYEIHKEFYDGLFPRVQQWSHQQRVGDLFQKLASQLGVYRAFVDNYGVAMEMAEKCCQANAQFAEISENLRARSNKDAKDPTTKNSLETLLYKPVDRVTRSTLVLHDLLKHTPASHPDHPLLQDALRISQNFLSSINEEITPRRQSMTVKKGEHRQLLKDSFMVELVEGARKLRHVFLFTDLLLCTKLKKQSGGKTQQYDCKWYIPLTDLSFQMVDELEAVPNIPLVPDEELDALKIKISQIKNDIQREKRANKGSKATERLKKKLSEQESLLLLMSPSMAFRVHSRNGKSYTFLISSDYERAEWRENIREQQKKCFRSFSLTSVELQMLTNSCVKLQTVHSIPLTINKEDDESPGLYGFLNVIVHSATGFKQSSNLYCTLEVDSFGYFVNKAKTRVYRDTAEPNWNEEFEIELEGSQTLRILCYEKCYNKTKIPKEDGESTDRLMGKGQVQLDPQALQDRDWQRTVIAMNGIEVKLSVKFNSREFSLKRMPSRKQTGVFGVKIAVVTKRERSKVPYIVRQCVEEIERRGMEEVGIYRVSGVATDIQALKAAFDVNNKDVSVMMSEMDVNAIAGTLKLYFRELPEPLFTDEFYPNFAEGIALSDPVAKESCMLNLLLSLPEANLLTFLFLLDHLKRVAEKEAVNKMSLHNLATVFGPTLLRPSEKESKLPANPSQPITMTDSWSLEVMSQVQVLLYFLQLEAIPAPDSKRQSILFSTEV
- Co-immunoprecipitation of simian Grb2 protein by anti-BCR C-terminal (1256-1271) antibody (simian Grb2 protein): bind specifically

B3: p160 BCR lacking tyrosine 177: tyrosine 177 to phenylalanine mutant of p160 BCR (protein)
chain: MVDPVGFAEAWKAQFPDSEPPRMELRSVGDIEQELERCKASIRRLEQEVNQERFRMIYLQTLLAKEKKSYDRQRWGFRRAAQAPDGASEPRASASRPQPAPADGADPPPAEEPEARPDGEGSPGKARPGTARRPGAAASGERDDRGPPASVAALRSNFERIRKGHGQPGADAEKPFFVNVEFHHERGLVKVNDKEVSDRISSLGSQAMQMERKKSQHGAGSSVGDASRPPYRGRSSESSCGVDGDYEDAELNPRFLKDNLIDANGGSRPPWPPLEYQPYQSIYVGGMMEGEGKGPLLRSQSTSEQEKRLTWPRRSYSPRSFEDCGGGYTPDCSSNENLTSSEEDFSSGQSSRVSPSPTTYRMFRDKSRSPSQNSQQSFDSSSPPTPQCHKRHRHCPVVVSEATIVGVRKTGQIWPNDGEGAFHGDADGSFGTPPGYGCAADRAEEQRRHQDGLPYIDDSPSSSPHLSSKGRGSRDALVSGALESTKASELDLEKGLEMRKWVLSGILASEETYLSHLEALLLPMKPLKAAATTSQPVLTSQQIETIFFKVPELYEIHKEFYDGLFPRVQQWSHQQRVGDLFQKLASQLGVYRAFVDNYGVAMEMAEKCCQANAQFAEISENLRARSNKDAKDPTTKNSLETLLYKPVDRVTRSTLVLHDLLKHTPASHPDHPLLQDALRISQNFLSSINEEITPRRQSMTVKKGEHRQLLKDSFMVELVEGARKLRHVFLFTDLLLCTKLKKQSGGKTQQYDCKWYIPLTDLSFQMVDELEAVPNIPLVPDEELDALKIKISQIKNDIQREKRANKGSKATERLKKKLSEQESLLLLMSPSMAFRVHSRNGKSYTFLISSDYERAEWRENIREQQKKCFRSFSLTSVELQMLTNSCVKLQTVHSIPLTINKEDDESPGLYGFLNVIVHSATGFKQSSNLYCTLEVDSFGYFVNKAKTRVYRDTAEPNWNEEFEIELEGSQTLRILCYEKCYNKTKIPKEDGESTDRLMGKGQVQLDPQALQDRDWQRTVIAMNGIEVKLSVKFNSREFSLKRMPSRKQTGVFGVKIAVVTKRERSKVPYIVRQCVEEIERRGMEEVGIYRVSGVATDIQALKAAFDVNNKDVSVMMSEMDVNAIAGTLKLYFRELPEPLFTDEFYPNFAEGIALSDPVAKESCMLNLLLSLPEANLLTFLFLLDHLKRVAEKEAVNKMSLHNLATVFGPTLLRPSEKESKLPANPSQPITMTDSWSLEVMSQVQVLLYFLQLEAIPAPDSKRQSILFSTEV
- Co-immunoprecipitation of simian Grb2 protein by anti-BCR C-terminal (1256-1271) antibody (simian Grb2 protein): much reduced level
